Columns and labels:
[1] = molecular target: CXCR1 on CXCR1-transfected HEK293 cells (UniProt P25024); assay: cell-based or functional assay
[2] = molecular target: CXCR2 on purified human neutrophils (human) (UniProt P25025); assay: cell-based or functional assay
UniProt P25025, sequence (P25025 whole entry): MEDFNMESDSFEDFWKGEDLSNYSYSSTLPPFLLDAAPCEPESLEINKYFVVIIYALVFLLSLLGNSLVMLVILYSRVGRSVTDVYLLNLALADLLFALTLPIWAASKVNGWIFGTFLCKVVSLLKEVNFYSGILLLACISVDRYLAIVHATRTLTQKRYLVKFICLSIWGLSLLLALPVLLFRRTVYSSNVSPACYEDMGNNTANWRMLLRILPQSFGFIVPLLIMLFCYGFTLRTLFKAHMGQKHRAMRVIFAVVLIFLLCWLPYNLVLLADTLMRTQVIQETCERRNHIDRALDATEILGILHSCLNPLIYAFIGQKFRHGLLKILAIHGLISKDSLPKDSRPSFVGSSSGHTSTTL

UniProt P25024, sequence (P25024 whole entry): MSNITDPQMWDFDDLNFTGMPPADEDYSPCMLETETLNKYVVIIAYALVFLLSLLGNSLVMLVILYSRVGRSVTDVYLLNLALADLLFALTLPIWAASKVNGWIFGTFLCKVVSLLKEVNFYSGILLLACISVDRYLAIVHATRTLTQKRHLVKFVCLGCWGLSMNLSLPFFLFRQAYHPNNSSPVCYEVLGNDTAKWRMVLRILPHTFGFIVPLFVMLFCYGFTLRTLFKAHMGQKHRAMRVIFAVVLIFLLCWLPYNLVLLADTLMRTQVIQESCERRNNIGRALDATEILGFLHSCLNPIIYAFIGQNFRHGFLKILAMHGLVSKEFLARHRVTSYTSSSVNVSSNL

For “human GS-CXCL8(3-72)K11R/G31P (from UniProt P10145 30-99) (ligand)”, the CXCL8-induced chemotactic responses of CXCR1-transfected HEK293 cells (modified Boyden chamber), G31P at 10 ng/ml [1] was 80 % blocked, the intracellular Ca^++ flux in human neutrophils induced by CXCL1 (100 ng/ml), G31P at 10 ng/ml [2] was under 95 % reduced and the intracellular Ca^++ flux in human neutrophils induced by CXCL5 (100 ng/ml), G31P at 10 ng/ml [2] was under 95 % reduced.

From patent publication US20120070405A1
